Measured values reported in patent US12679878B2, “CRF2 receptor agonists and their use in therapy” (SANOFI, priority 2020, dated 2026).
Starred links: 1 amine or outer side, 2 acyl side, 3 side chain; linkers in the order of their positions; H or OH if unused. Non-standard residues stand in square brackets, D forms with d. Groups on a side chain read outwards from the residue. No end group written: not given here. *: point of attachment. C20 diacid = O=C(O)CCCCCCCCCCCCCCCCCCC(=O)*; C18 diacid = O=C(O)CCCCCCCCCCCCCCCCC(=O)*; γGlu = O=C(O)[C@H](CCC(=O)[*:2])N[*:1]; AEEA = NCCOCCOCC(=O)O; Aib = CC(C)(N)C(=O)O

T1: endogenous human CRF2 (NCI-H82 cells) (human, UniProt Q13324 20-411)
T1 sequence (looked up): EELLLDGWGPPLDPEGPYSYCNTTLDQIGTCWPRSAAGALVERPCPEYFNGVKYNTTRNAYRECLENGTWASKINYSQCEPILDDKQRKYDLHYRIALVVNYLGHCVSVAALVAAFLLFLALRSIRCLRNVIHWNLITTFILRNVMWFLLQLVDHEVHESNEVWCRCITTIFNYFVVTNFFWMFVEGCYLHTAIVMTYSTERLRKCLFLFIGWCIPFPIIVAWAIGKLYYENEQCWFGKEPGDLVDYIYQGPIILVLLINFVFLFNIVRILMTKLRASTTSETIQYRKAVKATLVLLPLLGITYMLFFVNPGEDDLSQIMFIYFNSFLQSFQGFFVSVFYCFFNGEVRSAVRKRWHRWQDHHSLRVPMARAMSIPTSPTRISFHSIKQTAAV

T2: anti-target CRF1R receptor (UniProt P34998 24-415, limits assumed)
T2 sequence (looked up): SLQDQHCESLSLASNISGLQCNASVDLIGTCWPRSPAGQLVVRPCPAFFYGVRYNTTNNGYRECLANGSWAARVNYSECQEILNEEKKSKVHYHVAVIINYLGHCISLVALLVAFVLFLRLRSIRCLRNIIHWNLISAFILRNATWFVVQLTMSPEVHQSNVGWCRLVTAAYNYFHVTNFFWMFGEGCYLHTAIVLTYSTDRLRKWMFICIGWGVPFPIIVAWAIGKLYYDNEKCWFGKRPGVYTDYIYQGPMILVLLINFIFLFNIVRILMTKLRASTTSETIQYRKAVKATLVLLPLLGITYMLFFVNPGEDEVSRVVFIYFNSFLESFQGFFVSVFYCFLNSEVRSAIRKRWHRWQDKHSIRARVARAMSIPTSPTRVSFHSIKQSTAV


What was measured:
Assay in all cases: cell-based or functional assay
[1] = target: T1, endogenous human CRF2 (NCI-H82 cells)
[2] = target: rat CRF2R α receptor (rat, UniProt P47866 20-411)
[3] = target: T2, anti-target CRF1R receptor

Binder	EC50 [nM] (cAMP, NCI-H82 cells) [1]	EC50 [nM], 0% HSA (cAMP, A7R5 cells) [2] [nM]	EC50[nM] 0% HSA (cAMP, CRF1R-overexpression CHO cells) [3] [nM]	Emax (%) (cAMP, CRF1R-overexpression CHO cells) [3]
IVLSLD[dV]PIKLK([AEEA-AEEA-γGlu-C18 diacid])QILLKQERQK[Aib]QREQAEKNKQILAQV-NH2 (N-terminus assumed; SMILES CC[C@H](C)[C@H](N)C(=O)N[C@H](C(=O)N[C@@H](CC(C)C)C(=O)N[C@@H](CO)C(=O)N[C@@H](CC(C)C)C(=O)N[C@@H](CC(=O)O)C(=O)N[C@@H](C(=O)N1CCC[C@H]1C(=O)N[C@H](C(=O)N[C@@H](CCCCN)C(=O)N[C@@H](CC(C)C)C(=O)N[C@@H](CCCCNC(=O)COCCOCCNC(=O)COCCOCCNC(=O)CC[C@H](NC(=O)CCCCCCCCCCCCCCCCC(=O)O)C(=O)O)C(=O)N[C@@H](CCC(N)=O)C(=O)N[C@H](C(=O)N[C@@H](CC(C)C)C(=O)N[C@@H](CC(C)C)C(=O)N[C@@H](CCCCN)C(=O)N[C@@H](CCC(N)=O)C(=O)N[C@@H](CCC(=O)O)C(=O)N[C@@H](CCCNC(=N)N)C(=O)N[C@@H](CCC(N)=O)C(=O)N[C@@H](CCCCN)C(=O)NC(C)(C)C(=O)N[C@@H](CCC(N)=O)C(=O)N[C@@H](CCCNC(=N)N)C(=O)N[C@@H](CCC(=O)O)C(=O)N[C@@H](CCC(N)=O)C(=O)N[C@@H](C)C(=O)N[C@@H](CCC(=O)O)C(=O)N[C@@H](CCCCN)C(=O)N[C@@H](CC(N)=O)C(=O)N[C@@H](CCCCN)C(=O)N[C@@H](CCC(N)=O)C(=O)N[C@H](C(=O)N[C@@H](CC(C)C)C(=O)N[C@@H](C)C(=O)N[C@@H](CCC(N)=O)C(=O)N[C@H](C(N)=O)C(C)C)[C@@H](C)CC)[C@@H](C)CC)[C@@H](C)CC)C(C)C)C(C)C) [peptide of SEQ ID NO: 130]	4.3	0.13	> 1000	20.3
IVLSLDVPIKLK([AEEA-AEEA-γGlu-C18 diacid])KILLKQERQKK[Aib]REQAETNKQILERV-NH2 (N-terminus assumed; SMILES CC[C@H](C)[C@H](N)C(=O)N[C@H](C(=O)N[C@@H](CC(C)C)C(=O)N[C@@H](CO)C(=O)N[C@@H](CC(C)C)C(=O)N[C@@H](CC(=O)O)C(=O)N[C@H](C(=O)N1CCC[C@H]1C(=O)N[C@H](C(=O)N[C@@H](CCCCN)C(=O)N[C@@H](CC(C)C)C(=O)N[C@@H](CCCCNC(=O)COCCOCCNC(=O)COCCOCCNC(=O)CC[C@H](NC(=O)CCCCCCCCCCCCCCCCC(=O)O)C(=O)O)C(=O)N[C@@H](CCCCN)C(=O)N[C@H](C(=O)N[C@@H](CC(C)C)C(=O)N[C@@H](CC(C)C)C(=O)N[C@@H](CCCCN)C(=O)N[C@@H](CCC(N)=O)C(=O)N[C@@H](CCC(=O)O)C(=O)N[C@@H](CCCNC(=N)N)C(=O)N[C@@H](CCC(N)=O)C(=O)N[C@@H](CCCCN)C(=O)N[C@@H](CCCCN)C(=O)NC(C)(C)C(=O)N[C@@H](CCCNC(=N)N)C(=O)N[C@@H](CCC(=O)O)C(=O)N[C@@H](CCC(N)=O)C(=O)N[C@@H](C)C(=O)N[C@@H](CCC(=O)O)C(=O)N[C@H](C(=O)N[C@@H](CC(N)=O)C(=O)N[C@@H](CCCCN)C(=O)N[C@@H](CCC(N)=O)C(=O)N[C@H](C(=O)N[C@@H](CC(C)C)C(=O)N[C@@H](CCC(=O)O)C(=O)N[C@@H](CCCNC(=N)N)C(=O)N[C@H](C(N)=O)C(C)C)[C@@H](C)CC)[C@@H](C)O)[C@@H](C)CC)[C@@H](C)CC)C(C)C)C(C)C) [peptide of SEQ ID NO: 101]	4.1	1.02	> 1000	-0.34
IVLSLDVPIKLK([AEEA-AEEA-γGlu-C20 diacid])QILLEQEKQK[Aib]QREQAETNKQILAQV-NH2 (N-terminus assumed; SMILES CC[C@H](C)[C@H](N)C(=O)N[C@H](C(=O)N[C@@H](CC(C)C)C(=O)N[C@@H](CO)C(=O)N[C@@H](CC(C)C)C(=O)N[C@@H](CC(=O)O)C(=O)N[C@H](C(=O)N1CCC[C@H]1C(=O)N[C@H](C(=O)N[C@@H](CCCCN)C(=O)N[C@@H](CC(C)C)C(=O)N[C@@H](CCCCNC(=O)COCCOCCNC(=O)COCCOCCNC(=O)CC[C@H](NC(=O)CCCCCCCCCCCCCCCCCCC(=O)O)C(=O)O)C(=O)N[C@@H](CCC(N)=O)C(=O)N[C@H](C(=O)N[C@@H](CC(C)C)C(=O)N[C@@H](CC(C)C)C(=O)N[C@@H](CCC(=O)O)C(=O)N[C@@H](CCC(N)=O)C(=O)N[C@@H](CCC(=O)O)C(=O)N[C@@H](CCCCN)C(=O)N[C@@H](CCC(N)=O)C(=O)N[C@@H](CCCCN)C(=O)NC(C)(C)C(=O)N[C@@H](CCC(N)=O)C(=O)N[C@@H](CCCNC(=N)N)C(=O)N[C@@H](CCC(=O)O)C(=O)N[C@@H](CCC(N)=O)C(=O)N[C@@H](C)C(=O)N[C@@H](CCC(=O)O)C(=O)N[C@H](C(=O)N[C@@H](CC(N)=O)C(=O)N[C@@H](CCCCN)C(=O)N[C@@H](CCC(N)=O)C(=O)N[C@H](C(=O)N[C@@H](CC(C)C)C(=O)N[C@@H](C)C(=O)N[C@@H](CCC(N)=O)C(=O)N[C@H](C(N)=O)C(C)C)[C@@H](C)CC)[C@@H](C)O)[C@@H](C)CC)[C@@H](C)CC)C(C)C)C(C)C) [peptide of SEQ ID NO: 81]	110	0.94	> 1000	23.3
IVLSLD[dV]PIKLK([AEEA-AEEA-γGlu-C18 diacid])QILLKQERQK[Aib]QRQQAEKNKQILAQV-NH2 (N-terminus assumed; SMILES CC[C@H](C)[C@H](N)C(=O)N[C@H](C(=O)N[C@@H](CC(C)C)C(=O)N[C@@H](CO)C(=O)N[C@@H](CC(C)C)C(=O)N[C@@H](CC(=O)O)C(=O)N[C@@H](C(=O)N1CCC[C@H]1C(=O)N[C@H](C(=O)N[C@@H](CCCCN)C(=O)N[C@@H](CC(C)C)C(=O)N[C@@H](CCCCNC(=O)COCCOCCNC(=O)COCCOCCNC(=O)CC[C@H](NC(=O)CCCCCCCCCCCCCCCCC(=O)O)C(=O)O)C(=O)N[C@@H](CCC(N)=O)C(=O)N[C@H](C(=O)N[C@@H](CC(C)C)C(=O)N[C@@H](CC(C)C)C(=O)N[C@@H](CCCCN)C(=O)N[C@@H](CCC(N)=O)C(=O)N[C@@H](CCC(=O)O)C(=O)N[C@@H](CCCNC(=N)N)C(=O)N[C@@H](CCC(N)=O)C(=O)N[C@@H](CCCCN)C(=O)NC(C)(C)C(=O)N[C@@H](CCC(N)=O)C(=O)N[C@@H](CCCNC(=N)N)C(=O)N[C@@H](CCC(N)=O)C(=O)N[C@@H](CCC(N)=O)C(=O)N[C@@H](C)C(=O)N[C@@H](CCC(=O)O)C(=O)N[C@@H](CCCCN)C(=O)N[C@@H](CC(N)=O)C(=O)N[C@@H](CCCCN)C(=O)N[C@@H](CCC(N)=O)C(=O)N[C@H](C(=O)N[C@@H](CC(C)C)C(=O)N[C@@H](C)C(=O)N[C@@H](CCC(N)=O)C(=O)N[C@H](C(N)=O)C(C)C)[C@@H](C)CC)[C@@H](C)CC)[C@@H](C)CC)C(C)C)C(C)C) [peptide of SEQ ID NO: 135]	110	0.13	> 1000	28.4
IVLSLD[dV]PIKLK([AEEA-AEEA-γGlu-C18 diacid])QILLKQERQKKQREQAEKNKQILEQV-NH2 (N-terminus assumed; SMILES CC[C@H](C)[C@H](N)C(=O)N[C@H](C(=O)N[C@@H](CC(C)C)C(=O)N[C@@H](CO)C(=O)N[C@@H](CC(C)C)C(=O)N[C@@H](CC(=O)O)C(=O)N[C@@H](C(=O)N1CCC[C@H]1C(=O)N[C@H](C(=O)N[C@@H](CCCCN)C(=O)N[C@@H](CC(C)C)C(=O)N[C@@H](CCCCNC(=O)COCCOCCNC(=O)COCCOCCNC(=O)CC[C@H](NC(=O)CCCCCCCCCCCCCCCCC(=O)O)C(=O)O)C(=O)N[C@@H](CCC(N)=O)C(=O)N[C@H](C(=O)N[C@@H](CC(C)C)C(=O)N[C@@H](CC(C)C)C(=O)N[C@@H](CCCCN)C(=O)N[C@@H](CCC(N)=O)C(=O)N[C@@H](CCC(=O)O)C(=O)N[C@@H](CCCNC(=N)N)C(=O)N[C@@H](CCC(N)=O)C(=O)N[C@@H](CCCCN)C(=O)N[C@@H](CCCCN)C(=O)N[C@@H](CCC(N)=O)C(=O)N[C@@H](CCCNC(=N)N)C(=O)N[C@@H](CCC(=O)O)C(=O)N[C@@H](CCC(N)=O)C(=O)N[C@@H](C)C(=O)N[C@@H](CCC(=O)O)C(=O)N[C@@H](CCCCN)C(=O)N[C@@H](CC(N)=O)C(=O)N[C@@H](CCCCN)C(=O)N[C@@H](CCC(N)=O)C(=O)N[C@H](C(=O)N[C@@H](CC(C)C)C(=O)N[C@@H](CCC(=O)O)C(=O)N[C@@H](CCC(N)=O)C(=O)N[C@H](C(N)=O)C(C)C)[C@@H](C)CC)[C@@H](C)CC)[C@@H](C)CC)C(C)C)C(C)C) [peptide of SEQ ID NO: 137]	120	0.14	> 1000	22.5
